{"source": "the nanobody polyreactivity screen of Harvey et al. (2022)", "data": [{"test": "yeast display, Sf9 membrane polyspecificity reagent, FACS + sequencing; frameworks hold sequencing errors", "method_in_brief": "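Polyreactivity labels are assigned by the sorting gate from which each nanobody was recovered. The gates were low and high (top ~1%), set on anti-HA fluorescence for expression and streptavidin fluorescence for reagent binding. Before sorting, galactose-induced (36–48 hours) yeast display cells were stained for 1 hour at 4 °C with 10% biotinylated, detergent-solubilized Sf9 membrane reagent.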", "values": [{"sequence": "QVHLVESGGGLVQAGGSLRLSCAASGFIFYYYAMGWYRQAPGKERELVASISAIGGGTYYADSVNGRFTISRDNAKNTVYLQMNSLKPEDTAVYYCDPDGDGWWWSYVDRYDYWGQGTQVTVSS", "polyreactivity (PSR sort gate)": "low polyreactivity"}, {"sequence": "QVHLVESGGGLVQAGGSLRLSCAASGFILPYYAMGWYRQAPGKERELVAAISRSGGGTYYADSVKGRFTISRDNAKNTVYLQMNSLKPEDTAVYYCAADYSAYEYEYWGQGTQVTVSS", "polyreactivity (PSR sort gate)": "high polyreactivity"}, {"sequence": "QVHLVESGGGLVQAGGSLRLSCAASGFPFGSYAMGWDRPAPGKERELVSGISRGGSTNYADSVKGRFTISRDNAKNTVYLQMNSLKPEDTAVYYCAARAVFVADTGATPAGYDYWGQGTQVTVSS", "polyreactivity (PSR sort gate)": "low polyreactivity"}, {"sequence": "QVHLVESGGGLVQAGGSLRLSCAASGFTFDYYTMGWYRPAPGKERELVAAITSSAGSTDYADSVKGRFTISRDNAKNTVYLQMNSLKPEDTAVYYCNADFLYGTYDYWGQGTQVTVSS", "polyreactivity (PSR sort gate)": "low polyreactivity"}, {"sequence": "QVHLVESGGGLVQAGGSLRLSCAASGFTFIRNGMGSYRQAPGKERELVAAINSRGGNTYYADSVKGRFTISRDNAKNTVYLQMNSLKPEDTAVYYCNRVVQRWSTQYGYWGQGTQVTVSS", "polyreactivity (PSR sort gate)": "high polyreactivity"}, {"sequence": "QVHLVESGGGLVQAGGSLRLSCAASGFTFRRYAMGWYRQAPGKERELVAAISYGGGRTYYADSVKGRFTISRDNAKNTVYLQMNSLKPEDTAVYYCAADVQSRYVGEGDYWGQGTQVTVSS", "polyreactivity (PSR sort gate)": "high polyreactivity"}, {"sequence": "QVHLVESGGGLVQAGGSLRLSCAASGFTFRYYGMGRYRQAPGKERELVAAISRGGSTNYADSVKGRFTISRDNAKNTVYLQMTSLKPEDTAVYYFAKAGLTYRALRYYWGQGTQVTVSS", "polyreactivity (PSR sort gate)": "high polyreactivity"}, {"sequence": "QVHLVESGGGLVQAGGSLRLSCAASGFTFSTYTMGWYRQSPGKERELVAAIRRSGDSTYYADSVKGRFTISRDNAKNTVYLQMNSLKPVDTAVYYCNAVLYRFERFDYWGQGTQVTVSS", "polyreactivity (PSR sort gate)": "high polyreactivity"}, {"sequence": "QVHLVESGGGLVQAGGSLRLSCAASGFTFVFYTMGWYRPAPGKERELVAAISHTGDSTYYADSVKGRFTISRDNAKNTVYFQMNSLKPEDTAVYYCATDLYTADPDPSPTYKFEYWGQGTQVTVSS", "polyreactivity (PSR sort gate)": "low polyreactivity"}, {"sequence": "QVHLVESGGGLVQAGGSLRLSCAASGFTFYKYVMGWYRQAPGKERELVAAITTSGGSTYYADSVKGRFTISRDNAKNTVYLQMNSLKPEDTAVYYCNARSLHTSEGDYWGQGTQVTVSS", "polyreactivity (PSR sort gate)": "low polyreactivity"}, {"sequence": "QVHLVESGGGLVQAGGSLRLSCAASGFTFYSYAMGWYRPPPGKEREFVAAITIGGGSTNYADSVKGRFTISRDIAKNTVYLQMNSLKPEDTAVYYCNVDYTLHFGYWGQGTQVTVSS", "polyreactivity (PSR sort gate)": "low polyreactivity"}, {"sequence": "QVHLVESGGGLVQAGGSLRLSCAASGFTIDYYAMAWYRQAPGKERELDAAISRAGSTNYADSVKGRFTISRDNAKNTVYLQMNSLKPEDTAVYYCNKGYHSWSRLSQFGWSYDYWGQGTQVTVSS", "polyreactivity (PSR sort gate)": "high polyreactivity"}, {"sequence": "QVHLVESGGGLVQAGGSLRLSCAASGGIFYINSMGWYRQAPGKERELVAAITGGASTYYADSVKGRFTISRDNAKNTVYLQMNSLNPEDTAVYYCAARPSSRRVYPAYLYGYWGQGTQVSVSS", "polyreactivity (PSR sort gate)": "high polyreactivity"}, {"sequence": "QVHLVESGGGLVQAGGSLRLSCAASGGTIAFNGMGWYRQAPGKDRELVAAITWRSGSTYYADSVKGRFTISRDNPKNPVYLQMNSLKPDDTAVYYCNAARAVYTQKRFDSWGQGTQVTVSS", "polyreactivity (PSR sort gate)": "high polyreactivity"}, {"sequence": "QVHLVESGGGLVQAGGSLRLSCAASGIIFRRYAMGWYRQAPGKERELVAAISSRGGSTYYADSVKRRFTISRDNAKNTVYLQMNSLKPEDTAVYYCAKGFSGTGGSGDFGYWGQGTQVTVSS", "polyreactivity (PSR sort gate)": "high polyreactivity"}, {"sequence": "QVHLVESGGGLVQAGGSLRLSCAASGITFEGYAMGWYRQAPGKERELVAAIRSSGTSTYYADSVKGRFTISRDNAKNTVYLQMNSLKPEDTAVYYCNRARSSSRYDYWGQGTQVTVSS", "polyreactivity (PSR sort gate)": "low polyreactivity"}, {"sequence": "QVHLVESGGGLVQAGGSLRLSCAASGITFLKYAMGWYRQAPGKERELVARITSGGRTYYADSVKGRFTISRDNAKNTVYLLMNSLKPEDTAVYYCNAVKSYASLYAGFYYWGQGTHVTVSS", "polyreactivity (PSR sort gate)": "high polyreactivity"}, {"sequence": "QVHLVESGGGLVQAGGSLRLSCAASGITFYRYAMGWYRLAPGTERELVAAISSSGGSTYYADSVKGRFTISRDNAKNTVYLQMNSLKPEDTAVYYCAAQYNVPRDKYYFWGQGTQVTVSS", "polyreactivity (PSR sort gate)": "high polyreactivity"}, {"sequence": "QVHLVESGGGLVQAGGSLRLSCAASGLTFHVYAMGWYRQAPGKERELVAAISWSGGSTYYADSVKGRFTISRDNAKNTVYLQMNSLKPEDTAVYYCAAESLSQGIWYDYWGQGTQVTVSS", "polyreactivity (PSR sort gate)": "high polyreactivity"}, {"sequence": "QVHLVESGGGLVQAGGSLRLSCAASGNTFGRYAMGWYRQAPGKEREFVAAIRWRGATTYYADSVKGRFTISRDNAKNTVDLQMNSLKPEDTAVYYCAAYYWGQGTGFDYWGQGTQVTVSS", "polyreactivity (PSR sort gate)": "high polyreactivity"}, {"sequence": "QVHLVESGGGLVQAGGSLRLSCAASGRIFAGYARGWYRQAPGKERELVAAISDGGTTNYADSVKGRFTISRDNAKNTVYLQMNSLKPEDTAVYYGAKDAAESYRYGYWGQGTQVSVSS", "polyreactivity (PSR sort gate)": "low polyreactivity"}, {"sequence": "QVHLVESGGGLVQAGGSLRLSCAASGRIFAYNAMGWYRQAPGKERELVAAITSRGTSTYYADSVKGRFTISRDNAKNTVYLQMNSLKQEDTAVYYCNADYNRNSVQVSLYDYWGQGTQVTVSS", "polyreactivity (PSR sort gate)": "low polyreactivity"}, {"sequence": "QVHLVESGGGLVQAGGSLRLSCAASGRIFGAYTMGWYRQAPGKERELVAAIAGRTYYADSVKGRFTISRDNAKYTVYLQMNSLKPEETAVYYFADRYKSRNYDYWGQGTQVTVSS", "polyreactivity (PSR sort gate)": "high polyreactivity"}, {"sequence": "QVHLVESGGGLVQAGGSLRLSCAASGRIFKTYAMRWYRQAPGKERELVAAITASGGRTYDADSVKGRFTISRDNAKNTVYLQMNSLTPEDSAVYYCAAPLLRDLRSPYYYNYWGQGTQVTVSS", "polyreactivity (PSR sort gate)": "low polyreactivity"}, {"sequence": "QVHLVESGGGLVQAGGSLRLSCAASGRIFRRNTMGWYRQAPGKERELVAAITSSGGSTYADSVKGRFTISRDNAKNTVYLQMNSLKPEDTAVYYCATYVAYHRGYRTYDHWGQGTQVTVSS", "polyreactivity (PSR sort gate)": "low polyreactivity"}, {"sequence": "QVHLVESGGGLVQAGGSLRLSCAASGRIFRRYAMGWSRQAPGKERELVAAISSGGSTYYADSVKGRFTISRDNAKNTVYLQMNSLKPEDTAVYYCNAKVGAYLNYGYWGQGTQVTVSS", "polyreactivity (PSR sort gate)": "low polyreactivity"}, {"sequence": "QVHLVESGGGLVQAGGSLRLSCAASGRIFRYYAIGWYRQAPGKERELVAAITWRGDSTYYADSVKGRFTISRDNAKNTVYLQMNSLKPEDTAVYYCNKRWTDKYDSWGQGTQVTVSS", "polyreactivity (PSR sort gate)": "high polyreactivity"}, {"sequence": "QVHLVESGGGLVQAGGSLRLSCAASGRIFSGYAMGWYRQAPGKERELVAAITSGASTNYADSVNGRFTISRDNPKITVYLQLNSLKPVVTAFYYCAATFHSWRGQYLWYDYWGQGTQVTVSS", "polyreactivity (PSR sort gate)": "low polyreactivity"}, {"sequence": "QVHLVESGGGLVQAGGSLRLSCAASGRIFSSNAMGWYRQAPGKERELVAAISWIVGRTYYADSVKGRFTISRDNAKNTVYLQMNRLKPEDTAVYYCAKGSYYGRKRGWGYYYWGQGTQVTVSS", "polyreactivity (PSR sort gate)": "high polyreactivity"}, {"sequence": "QVHLVESGGGLVQAGGSLRLSCAASGRIFTRNAMVWYRQAPGKERELVAAISHSGGSTYADSVKGRFTISRDNAKNTVYLQMNSLKPEDTAVYYCAAKYYFEWNSALDYWGQGTQVTVSS", "polyreactivity (PSR sort gate)": "low polyreactivity"}, {"sequence": "QVHLVESGGGLVQAGGSLRLSCAASGRIFVTYAMGWYRQAPGKERELVAAIPWDGDSTYYADSVKGRFTFSRDNAKNTVYLQMNSLKREDTAVYYCNAKKFNSHVELGYDYWGQGTQVTVSS", "polyreactivity (PSR sort gate)": "low polyreactivity"}, {"sequence": "QVHLVESGGGLVQAGGSLRLSCAASGRIFYSHAMGWYRQAPGKEREFVAAISWSGGGTYYADSVKGRFTISRDNAKNTVYLQMNSLKPQDTAVYYCAARFRYYGSEYDYWGQGTKVTVSS", "polyreactivity (PSR sort gate)": "low polyreactivity"}, {"sequence": "QVHLVESGGGLVQAGGSLRLSCAASGRIIRYNAMGWYRQAPGKERELDAAITRSGGSTYYADSVKGRFTISRDNAKNTVYLQMNSLKPEDTGVYYCAKVQNGQWSTSGVPGDYQYNYWGQATQVTVSS", "polyreactivity (PSR sort gate)": "high polyreactivity"}, {"sequence": "QVHLVESGGGLVQAGGSLRLSCAASGRNFSSYAMGWYRQAPGKEWELVAAIRRGGGSTSYADSVKGRFTISRDNAKKTVYLQMNSLKPEDTAVYYCAADSPRGQVHYIGGYWGHGTQVTVSS", "polyreactivity (PSR sort gate)": "low polyreactivity"}, {"sequence": "QVHLVESGGGLVQAGGSLRLSCAASGRTFATNTMGWYRQAPGKEREFVAAISRGGVSTSYADSVKGRFTISRDNAKNTVYLQMNSLKPEDTAVYYCAAKHYGFNRNHRHSYDYWGQGTQVTVSS", "polyreactivity (PSR sort gate)": "high polyreactivity"}, {"sequence": "QVHLVESGGGLVQAGGSLRLSCAASGRTFDRYDMGWYRQAPGKEWELVATISSSGGSTYYADSVKGRFTISRDNEKNTVYLQMNSLKPEDTAVYYCAADPSGDYWGQGTQVTVSS", "polyreactivity (PSR sort gate)": "low polyreactivity"}, {"sequence": "QVHLVESGGGLVQAGGSLRLSCAASGRTFINYAMGWYRQAPGKERELVAAITTGGRTNYADSVKGRFTISRDNAKNTVYLQMNSLKPEDTAVYYCAADRYYWGRYTLNYWGQGTQVTVSS", "polyreactivity (PSR sort gate)": "low polyreactivity"}, {"sequence": "QVHLVESGGGLVQAGGSLRLSCAASGRTFIRYTMGWYRQAPGKEREFVAAINTSGGRTYYADSVKGRFTISRDNAKNTVYLQMNSLKPEDTAVYYCAAGYSASRKVDYWGQGTQVTVSS", "polyreactivity (PSR sort gate)": "high polyreactivity"}, {"sequence": "QVHLVESGGGLVQAGGSLRLSCAASGRTFPSYAMGWYRQAPGKERELVAAISSSGGSTYYADSVKGRFTISRDNAKNTVYLQMNSLKPEDTAVYYCAAATPSGYYYWGQGTQVTVSS", "polyreactivity (PSR sort gate)": "high polyreactivity"}, {"sequence": "QVHLVESGGGLVQAGGSLRLSCAASGRTFREYFMGWYRQAPGQERELVAVISWSTGSTYADSVKGRFTISRDNAKNTVYLQMNSLKPEDTAVYYCARRVQSLRNVVIYNYWGQGTQVTVSS", "polyreactivity (PSR sort gate)": "low polyreactivity"}, {"sequence": "QVHLVESGGGLVQAGGSLRLSCAASGRTFRKYAMGWYRQAPGKERELVAAISSSGGRTYYADSVKGRFTISRDNAKNTVYLQMNSLKPEDTAVYYCAAKQGNRNSYKYDYWGQGTQVTVSS", "polyreactivity (PSR sort gate)": "high polyreactivity"}, {"sequence": "QVHLVESGGGLVQAGGSLRLSCAASGRTFRYYAMGWYRPAPGKERELVAAISSSGDRTYYADSVKGRFTISRDNAKNTVYLQMNSLKPEDTSVYYCAADRGARGDYYWGQGTQVTVSS", "polyreactivity (PSR sort gate)": "high polyreactivity"}, {"sequence": "QVHLVESGGGLVQAGGSLRLSCAASGRTFRYYAMGWYRQAPGKERELVASISSTGGNTYYADSVKGRFTISRDNAKNTVYLQMNSLKPEDTAVYYCAAGAWTRGQYYYWGQGTQVTVSS", "polyreactivity (PSR sort gate)": "high polyreactivity"}]}]}
